Assay results published in patent US20250002577A1 (ONCORESPONSE, published 2025).

Molecular target: T1, human LILRB2 on cells (human, UniProt Q8N423 22-597)
T1 construct: whole, on cells; also called hLILRB2; LILRB2-HEK293T
Experiment: flow cytometry, AF647-labelled antibody on HEK293T cells stably expressing human LILRB2
Method: While LILRB2 expression is mostly restricted to myeloid cells, LILRB1 has a broader expression on immune cell subsets, including B cells, T cells and NK cells.
Frozen cells were removed from storage in vapor phase liquid nitrogen and thawed by gentle swirling in a water bath at 37° C., then resuspended in DMEM media with 10% FBS. Cells were placed in a 15 mL conical tube and centrifuged at 300×g for 5 min, then supernatant was removed. Cells were resuspended in DMEM+10% FBS at a cell density of 2×10⁵ cells/mL in a T75 flask for culturing, and incubated at 37° C., 5% CO₂ for 3 days before passaging. Cells were passaged when the cell density reached 1×10⁶ cell/mL. On the day of the assay, cells were centrifuged, then supernatant was removed. Cells were resuspended in Blocking Buffer B (FACS Buffer containing 10% FBS and 0.5 mg/mL human IgG1 (Athens Research, No. 16-16-090707-1M)+0.05% NaN₃, 5% (w/v)) in a 15 mL conical tube, then incubated at 4° C. for 30 min. […] Cells were incubated with antibodies at 4° C. for 1 h. Cells were washed twice in FACS Buffer (PBS containing 2 mM EDTA+1% FBS+0.05% NaN₃) and then stained with for 10 min with Zombie Violet™ fixable viability dye (BioLegend, No. 423114) at RT, washed with FACS Buffer and resuspend in 75 μL of FACS Buffer for acquisition on a BD FACSymphony™ or BD FACSCanto™ II flow cytometer (BD Biosciences), as described in Example 6.

T1 sequence (Q8N423 22-597): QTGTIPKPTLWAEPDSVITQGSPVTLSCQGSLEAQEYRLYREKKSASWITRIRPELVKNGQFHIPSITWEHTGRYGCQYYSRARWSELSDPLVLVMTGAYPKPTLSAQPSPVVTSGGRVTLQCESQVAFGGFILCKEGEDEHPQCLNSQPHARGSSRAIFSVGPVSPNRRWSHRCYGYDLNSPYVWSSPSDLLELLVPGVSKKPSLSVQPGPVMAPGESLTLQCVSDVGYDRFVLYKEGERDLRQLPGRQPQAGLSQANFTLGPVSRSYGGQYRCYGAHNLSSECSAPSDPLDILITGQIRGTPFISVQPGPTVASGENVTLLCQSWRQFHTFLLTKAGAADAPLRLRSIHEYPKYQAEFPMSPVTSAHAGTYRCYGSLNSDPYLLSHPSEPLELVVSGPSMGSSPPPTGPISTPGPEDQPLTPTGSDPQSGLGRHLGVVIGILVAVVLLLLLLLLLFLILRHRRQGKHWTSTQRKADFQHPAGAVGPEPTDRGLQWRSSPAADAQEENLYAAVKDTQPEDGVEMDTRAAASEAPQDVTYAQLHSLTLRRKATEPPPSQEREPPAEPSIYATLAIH

B1: Comp 2 (anti-LILRB2 antibody) (antibody, human IgG1, kappa, V domains shown)
VH: QIQLVQSGPELKKPGETVKISCKASGYTFTNYGMNWVKQAPGKGLKWMGWINTYIGEPIYADDFKGRFAFSLETSASTAYLQINNLKNEDMATYFCARRSDYDGYAMDYWGQGTSVTVSS
VL: DIVMSQSPSSLAVSVGERVTMSCKSSQSLLYSGNQKNYLAWYQQKPGQSPKLLIYWASTRESGVPDRFTGSGSGTDFTLTISSVKAEDLAVYYCQQHDSYPTFGGGSRLEIKR
  EC50 (read off the curve): ~0.6 nM
